Measurements published in the DeepSol protein solubility set.

Assay: soluble on expression in E. coli; label from the status in PepcDB or PDB records

Sequence | soluble on expression in E. coli
MTVPIAIIGTGIAGLSAAQALTAAGHQVHLFDKSRGSGGRMSSKRSDAGALDMGAQYFTARDRRFATAVKQWQAQGHVAEWTPLLYNFHAGRLSPSPDEQVRWVGKPGMSAITRAMRGDMPVSFSCRITEVFRGEEHWNLLDAEGQNHGPFSHVIIATPAPQASTLLAAAPKLASVVAGVKMDPTWAVALAFETPLQTPMQGCFVQDSPLDWLARNRSKPERDDTLDTWILHATSQWSRQNLDASREQVIEHLHGAFAELIDCTMPAPVFSLAHRWLYARPAGAHEWGALSDADLGIYVCGDWCLSGRVEGAWLSGQEAARRLLEHLQLEHHHHHH | soluble
MNHQETMTDYLMAFIEGLKNSGVEQAVISPGSRSTPLALLLHRETAIQTFVDVDERSAAFFALGLSKASQKPVVLLCTSGTAAANYYPAICEANISHVPLVVLTTDRPHELRQVGAPQAMDQLQMYQNHVKLFVEMALPEATEEMLNYAYWQGAKGAAFAQQTPAAPVHLNFPLREPLLPDLERKTKSSQQTALFAGQSILSTEQVQQLADQWYQKNGVLVVGGSHTEEEATLFIQLAEALQWPLLADPLANIVTHGQNSEVVIAHSDLFLNVATLPQEPEVVVRFGSLPISKNIMLWLKRLATTETAFYFVDENGQWQEQLKKSQTVIQAKETTFVEQLLTVVKPTEATWLAQWLLLEKTVSEVLLETLNATELNETTASLAVHQTMKENGQLFVSNSMAIRYLDRFMDSRPYRMFGNRGINGIDGIVSTALGMSAIAPTQQNVLLIGDLALYHDMNGLFLAKRYQLPLTIVLLNNNGGGIFSFLSQRTLREDDFEPLFGTPLDLDFSLVAELYGASYQEVKTIAELKQILQAAAEEPQFQVIEVKGNRQENVHLYESILAEIGRRVERQGISWNG | not soluble
MSLKYKLLVLDVDGTLLNDAKEISKRTLAALLKVQQMGVRIVLASGRPTYGLMPLAKSLELGNYGGYILSYNGCQIINAQNGEILFERRINPEMLPYLEKKARKNNFALFTYHDDTIITDTPENEHIQNEARLNNLKVIKEEEFSVAIDFAPCKCMLVSDDEEALVSLEGHWKRRLNGALDVFRSEPYFLEVVPCAIDKANTLGALLEELDVKREEVIAIGDGVCDVTMIQLAGLGVAMGHSQDSVKVCADYVTASNEEDGVALAVEKAIIAEVRAAEIPLDQLNAQARHALMGNLGIQYTYADEDRVEATMPVDHRTRQPFGILHGGATLALGETVAGLGSMILCQPDEIVVGMQVSGNHISSAHEGDTVRAVATIVHKGRSSHVWNVDVFTSTNKLVSSIRVVNSVMKKREGHHHHHH | soluble
MGSDKIHHHHHHMITVNDLSVQFGKRILFQDVNLTFTPGNCYGIIGANGAGKSTMLRVISKQLDPTRGTVTLGPGERLSVLSQDHFAFDENTVMDTVLMGHSVLWAIMEEKNALYAKPDFSDEDGTRVAELEDKFAEMEGWNAESDAAMLLSGLGIKEDLHYMLMKDLSGKQKVRVLLARALYGKPDNLLLDEPTNDLDLETVSWLENYLSNFENTVLVVSHDRHFLDSVCTHTVDIDFGKVQQFSGNYSFWYESSQLALRQQQQQNKKAEEKRKELEEFIRRFSANVAKSKQTTSRKKMLEKLNIEEITPSSRRYPGILFTPGREPGNKILEVKGLTKSIEGQLLFRDLNFNVEKDDKIVFISRDPRAMTALFSIINGEMTPDEGTYEWGQTITTAYLPLDNSGYFNTDLNLVEWLSQFAKDTNEVFLKGFLGRMLFSGEEILKKASVLSGGEKMRCMISKMMMLDANTLVLDTPTNHLDLESIQAFNNTLKTYRGNVLFASHDHEFIQTVANRIIELTPNGIIDKIMDYDDYITDPIVAEMRQKLYGQ | not soluble
MDKTKLYPEAPLTSSQWGELDELVIETARRQLVGRRFIDLYGPLGEGVQSVANDIYMNPEQGDMSFHGKELSLSEPARRVHLTIPLLYKDFILYWRDIEQAKQLGSPIDFSAAANAAQQCALLEDDLIFNGSTEFDVPGIMNVKGKIAHIRSDWMKSGNAFTDVVEARNKLLQLGHTGPYALVLSPELYALIHRVHEGTHVLEIEHIRELMTAGIYQTPVIKGKRGVVIDTGRQNIDLAVAADMQTAFLDTENMNYLFRVYESVVPRIKRPSAICTLEDPNESA | not soluble
MAHHHHHHMLTSENPAERAGQAGQAIRPPPSPVPDGTRPSDSSRGDSSVSPLSTTGISSSSALDAPIVQSTQPSEKGLRSETISLGTALPNEQPKERSESKAKQGSSTSEEVAESPDDSGDAVEKEKKGDVGPKATTSLSSTTSNPPVTQTTPRASSAEPPPTETELQTGEETSTENVTITKRNNTTTPGDSDGSTAVSHTTSPLLLLLVVVECAAAAAVVAA | soluble
SLMLHAQHMPGQPGTPSLVFLHGFSGDCHEWQPVGEQFHGCSRLYIDLPGHGGSAAIPVDGFADVIRLLRATLISYNILKFWLVGYSLGGRVAMMAACQGIPGLCGLVVEGGHPGLQNEQARAERRLSDGRWAERFRHEPLTEVFHDWYQQPVFASLTAQQRQALTALRSQNNGETLAAMLEATSLAVQPDLREALNALAFPFYYLCGERDSKFRALAQEVAATCHVIRNAGHNAHRENPAGVVDSLAQILRL | soluble
MSSGSSNFLLVPIPEYPVLDCVPNKNVKIVVLGASNVGKTALIVRFLTKRFIGDYEANTGALYSRKINLDGEQVSLQVQDTPCVSLQDDADGLYCQEQINRSITGRTVMCSSSPSLTSTATAPSSLSTNMCAESTPAVTSLSSSWETRATFCEPDRSQIPKGRRWRMNWEGYTLRLRPGRTTRASRQLFCTYVRR | not soluble
MNVLVIGRGGREHALAWKFAQSEKVEKVYVAPGNEGMRDVATPIDIDENDFDALVLFAKENHVELTFVGPEIPLMNGIVDRFKEEGLRVFGPNKAAAVIEGSKAFTKELMKKYNIPTAAYETFTDYEEAVQYIEKVGAPIVIKADGLAAGKGVTVAMTLEEALQAAKEMLQDVKFGEASKKVVIEEFLDGQEFSLMAFVNGTTVHPMVIAQDHKRAFDGDKGPNTGGMGAYSPVPQISESAVQEAIETVLYPTAKAMIQENRSFTGILYAGLILTNDGPKVIEFNARFGDPETEVVLPRLENDLVDVCNAVLDESELTLQWSDEAVIGVVLAAKGYPEAYKKGDIIKGLDALQDVIVFHAGTAMKRGDFVTNGGRVLFVACKANSLQEAKDKVYKEIGKIESDVLFYRSDIGYRAIGHEMTRS | not soluble
MGSDKIHHHHHHMLNTKDKQPILLIIFGQKMKEYDDLIRSTVERLSKRDRPVSILISKELNHVIHHYDAQFENLETLVGYINTHEDSLIYPLCLDKNHELFQEFLAWQSHYSRQYISDNLSEKSVQAIDNNQDFVQVDCLVMRDSLNNCLYVSDLEYIESNKTTGKSLAIVPSQTLSDAARQTIRDVAFDVCRKANIIGVCYFSFLIDLNSLDYHIISLSSGLSHQSILFETITTYPVLEIATKLTVGYTFSQLKHSYYPNTSAFLEPQLDYVATVSFSFEKVDYIFFARNIEQLFLNLLEASSHDHFPFLSDISEEDLMFALIQKKENRLAYLLEAFRRGFDLYDLSSVTKINPFYLDKCLHIVELYENLNKSQYNVDIYKEAKRYGFSDDYIASSWQISLIDMLEYRKKHSVAPVLKQVEQSSGVLTGHQIQYFRSYDWHSDYISSGCQKALIMVDKGYSLVKLNELIKQIKQTHLELLIVTNQPLLIEQLNDTSIIFDTIGIETILTIMGIEEVEEVYLLGESQADMFSKMKNFSISCQSI | not soluble
SNAMEHKIVHVGDIPVANDKPFTLFAGMNVLESRDLAMQICEHYVKVTDKLGIPYVFKASFDKANRSSVHSYRGPGLEEGMKIFQELKETFGVKIITDVHTEAQAQPVADVVDVIQLPAFLARQTDLVEAMAKTGAVINVKKPQFMSPGQVGNIVEKFAECGNDKVILCERGSCHGYDNLVVDMLGFGVMKQASNGSPIIFDVTHSLQMRDPSGAASGGRREQTVELAKAGLATGIAGLFIEAHPNPDKARCDGPSALPLDKLEPFLAQMKALDDLIKSFAHIDIR | soluble
MNKEEIILSAKNWMHSHFENETTGHDWSHIKRVWKLSKEIQSKEGGDLFTIELAALFHDYSDIKLTTDEQEATKTLINWMETKEIPSELIKKIIRIIQSVSFKKGKNTFKALTIEEKIVQDADRLDAIGAIGIARTFTYGGAHNREIANQNNPKNTTLQHFYDKLLLIKDQLNTETAKTIAKEKQKIMQDFIQALEKELKVLEHHHHHH | soluble
MAHHHHHHMATARSYFYYLDAHGNLFPVTDIKGLIDGTNIPAGPIQLRDRAFLDFFYLRLKRSDVEDAAACSNVSDRREEGELLLHSGAKLTPQEVVQHFPYVSICGPERNFLKAEEAPLVFVNYTSGHPKCKQQNGTLAFGESLWEDFQPQALVVTREGKLFHPITKLKNLIATQNGAGDAVPRGLVEAQVVKKLGLELVCDSAKSGYYVLEWKGQKQRIPYFDEL | not soluble
MFSVFEWILIFFGILNWFKFTQPSTPEPASRFFTRVCQQLRETVLIEIDSSGRVQPFVSIVEEGSKPYFSPHVGCAECMQWWDVYGEQPHRVEETEDQDTDEGVEEESEIEDSDFDDQITFVKPTTPAPLSPETENFIEDKMKFHFQATDIINEYLGKGTDMGIVSNLIRISQTYGVQLKQVSSGKSSMKEIEGILKSLQKEFEQEIEGLNGEISEAEENNESDIDESFEFVENLELDSDFE | not soluble
MGSDKIHHHHHHATCCAANGEGNCPEGTCRKECTNACNTNNQKNKTMAYSKKYTNADFYKDGKFQQDVAMEAMKDMFAFYDVPFTELMAKDMWVTDFGLGDFENVGMGGIFWINDPEYKYFAHAIYLLPGQMIPEHAHVKTDFPAKHESWMVEKGWVYNFSEVGDETPNAPAIPAGHGPIKSKNFVVQKVGDVLRLKKLETFHFMMAGPEGAIVDEWACYHDNAGLRFTNQKAAL | not soluble
MNRTLYTLLFHLGLPLVALRLWWRARQAPAYAKRIGERFSLSLPEVPPGGIWVHAVSVGESIAAAPMVRALLERHPQLPVTVTCMTPTGSERIRALFGEQVRHCYLPYDLPWAAARFLDRVRPRLAVIMETELWPNHIHACAVRGIPVALANARLSERSARGYARFAGLTRPMLAELSWIAVQTEAEAERFRRLGARPECVSVTGSIKFDLRIDPQLPLAAAALREEWDATARPLWIAASTHAGEDEIVLAAHRRLLETRPDALLILVPRHPERFAGVHELCRREGFATVRRSGGEPVARATQVLLGDTMGELLFLYALADIAFVGGSLVPNGGHNLLEPAALGKPVFAGPHLFNFLDIAAQLRDAGALLEVTDAGELCDGLARLWAQPEVATAMATAGEKVLRNNQGALERLLAGLARLLGRGG | not soluble
MSLKSDKDHSVNINARGSFNDRADEISDAEQYGNRLSLAYQGKFLEDTLGVAVGYAHLYQPYVASQFIGLRFNDANEDVNGDGVKEAISEGFELQQKGGDDTRDGYMAAIHWQPTDNFSVKGDLFHSKFTSENFARGFRVKSLKNGTISDAVVESGSMTGGTVSTDGTDNFAVFVVNDNDSKYSELTSGSFNVEWNNGGALTVAADVSYSKADGEFVNGGTRAVLYDDIGNEVRSAESVTYKLNGLSPADISFANDYTNTATLGLKEVGMWPYNQQNDLVAYKLDFNYALDMGFVSSVDFGVRYAEREFNAQRSQAGYGFEYGKNPSNQPVLALNGDMAKVVDFGGELSGYPSFLAIDFNKAIELVNAQLAATGQSPFTPTANWSNNWTMIQSGAVNEDVLAGYVQANLDFDIGDIKVTGNLGVRVVNTDQSSTGLQQVGYGLGEAITDELGVVSKDYIRNEVGKTYTDYLPSLNLTFHLTENDQLRFAAASVMSRPPINKLKSGMGSWYDDSATPGYKKYNAWGNTSPLLDPFYADQYDLSYEHFFEESEGAVVVALFYKDIKSFINDFTIQPFDFEANGFIVPDTIIDNGVEFPVIKNEGQYQTAINNDKGGYIRGIELGYTQIFDFLPSPLDGLGFTGSYSYSDSEVELTTDLSGSNLIMPLPGEGHHHHHH | not soluble
MNYGNNGGGQWQPRGNNNWRPQGRGRGGGGWKGNDNRGGYRGGSSNDGGWSNFRDDGNLNFASPYQANRGNFRGNYRGGGGGGGGNQNNYGNRGRGRGGFDRGRGGGGGGNKNFGPIDANKCIIPSMWNNPWDALEKEYEQEYGVAITEKVTDPSPSPSSAEETTA | not soluble
